Among the data in patent US20130324474A1 (Eli Lilly, published 2013) are EC50 values, retold here.

In the assay the target is T1, Recombinant Human GFRα-1/GDNF Rα-1 Fc Chimera (human, UniProt P56159 25-429).
T1 construct: Purchased Fc chimera; It was captured on protein A in Biacore and coated on the plate in ELISA; also called GFRα1-Fc; recombinant human GFRα1-Fc chimera, carrier-free; not shown: Fc part of a purchased Fc chimera
T1 sequence (looked up): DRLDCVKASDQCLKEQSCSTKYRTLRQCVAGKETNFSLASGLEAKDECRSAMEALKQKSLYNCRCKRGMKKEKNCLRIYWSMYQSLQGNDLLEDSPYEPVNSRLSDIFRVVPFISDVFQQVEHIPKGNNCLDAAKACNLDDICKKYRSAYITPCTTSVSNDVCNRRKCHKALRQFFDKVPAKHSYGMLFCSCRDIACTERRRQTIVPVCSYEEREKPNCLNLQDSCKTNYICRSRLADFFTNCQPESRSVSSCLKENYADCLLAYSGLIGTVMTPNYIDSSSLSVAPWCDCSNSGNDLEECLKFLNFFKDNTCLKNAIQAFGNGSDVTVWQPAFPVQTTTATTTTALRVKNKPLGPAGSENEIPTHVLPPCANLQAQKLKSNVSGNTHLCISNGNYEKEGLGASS
Put plainly: ELISA, plate-bound human GFRα1-Fc; upper end of the 95% confidence range, n = 4. The method, then:
Each well of a 96-well plate (Greiner 655081 Immunobind ELISA plates) is coated with 70 μl of human GFRα1 (recombinant human GFRα1-Fc chimera, carrier-free) at 1 μg/ml in carbonate buffer, pH 9.6. If an irrelevant receptor is coated, it is an irrelevant Fc chimera and is coated at the same concentration as GFRα1. The plates are sealed and incubated at 4° C. overnight. The wells are aspirated and washed twice with washing buffer (20 mM Tris (hydroxymethyl) aminomethane, pH 7.4, 0.15 M NaCl, 0.1% Tween-20), using an automatic plate washer. The plates are blocked with 200 μl blocking buffer per well (3% Carnation Instant milk in the above washing buffer) for at least 1 hour at room temperature. Plates are washed twice with washing buffer. […]
A 50 μl aliquot of horseradish peroxidase-conjugated streptavidin (Jackson ImmunoResearch, catalog #016-030-084), diluted 1:1000 in blocking buffer, is added to each well and incubated for 20-30 minutes at room temperature. […] The absorbance of the wells is read at 490 nm on a Molecular Devices SpectraMax250 plate reader. The average absorbance for the triplicate wells for each condition are determined, and the resulting values are processed for EC₅₀ calculation with Graph Pad Prism software to provide a 95% confidence range.
(In general: An ELISA detects its analyte on a solid surface through an enzyme-linked reagent.)

B1: CHO-Δ31-N38Q-D95E-GDNF (SEQ ID NO: 9) (ligand)
chain: RGQRGKQRGCVLTAIHLNVTDLGLGYETKEELIFRYCSGSCDAAETTYDKILKNLSRNRRLVSEKVGQACCRPIAFDDDLSFLDDNLVYHILRKHSAKRCGCI
modifications: N-glycosylated at N49 (numbering of mature GDNF)
notes: Expressed in CHO cells; also called CHO-Δ31-N38Q-D95E-GDNFv; GDNF variant 2
What is called EC50 is the concentration that produces a half-maximal response. B1: the EC50 lay in the range of 0.3 to 1.9 nM.
